The record followed here is the RNAGym collection of RNA variant scans (doi:10.7554/elife.80360).

The labels stand for the following.
B1: CPEB3 Ribozyme (parent)
chain: GGGGGCCACAGCAGAAGCGUUCACGUCGCGGCCCCUGUCAGAUUCUGGUGAAUCUGCGAAUUCUGCUGU

In this data set the parent is B1. Description: self-cleavage, relative activity (ratio to wild type); higher = more cleavage; co-transcriptional.
Take U36C C66G: the self-cleavage amounted to 0.621.
On to U36C C66A, for which the self-cleavage was 0.603.
The figure for C35U U61A is 0.596; for C35U U61G it is 0.854; for U36C U46A it is 0.922.
As to U36C U46C, the self-cleavage came out at 0.987.
With U36A C39A the figure was 0.233.
The figure for C35U G68C is 0.963; for C35U G68U it is 1.01; for G37C A40G it is 0.181.
With G37C A40C the figure was 0.242; with G37C A40U, 0.267; with C35U G56A, 0.819.
With C35U G56U, the self-cleavage amounted to 0.859.
The figure for C35U G56C is 0.651; for U36A U38G it is 0.185.
Turning to U36A U38C, the self-cleavage stood at 0.216.
Turning to U36A U38A, the self-cleavage was 0.25.
In the case of U36C C54A, the self-cleavage came out at 0.736.
For the variant U36C C54G, the self-cleavage is 0.765.
With U36C C54U, the self-cleavage stood at 0.973.
With G37A C66U the figure was 0.263; with U36A C63G, 0.213; with U36A C63U, 0.185.
The figure for G37A G41A is 0.231; for G37A G41C it is 0.192; for G37A U43A it is 0.261.
With G37A U43G, the self-cleavage is 0.359.
The figure for G37A U43C is 0.261; for G37A G58C it is 0.344.
For the variant U36G C63U, the self-cleavage was determined as 0.315.
The figure for U36G C63G is 0.181; for U36G G37U it is 0.199.
The figure for U36G G37C is 0.22; for U36G G37A it is 0.198; for U36C C57G it is 0.3.
For U36C C57A, the self-cleavage amounted to 0.251.
With U36G U64C the figure was 0.188.
For U36G U64G, the self-cleavage was 0.195.
The figure for U36A G68A is 0.317; for U36A G68C it is 0.227.
With U36C C45A the figure was 0.865; with U36C C45G, 0.866; with U36G U46C, 0.21.
As to U36G G65A, the self-cleavage came to 0.207.
U36G G65C: the self-cleavage is 0.25.
With G37A U53C the figure was 0.231.
Regarding U36A G48U, the self-cleavage came out at 0.311.
U36A G48C: the self-cleavage came to 0.291.
With U36A A42U the figure was 0.242; with U36A A42C, 0.191.
With U36G C54U the figure was 0.293; with C35U U43A, 0.818.
The figure for C35U U43C is 0.866.
For U36G G58C, the self-cleavage was found to be 0.277.
The figure for U36G G58A is 0.24; for C35U G65A it is 0.847.
On to C35U G65U, for which the self-cleavage was 0.632.
As for U36G U53C, the self-cleavage turned out to be 0.267.
With U36G C45A the figure was 0.276.
The figure for U36G C45G is 0.251.
Turning to U36A G41U, the self-cleavage stood at 0.251.
For the variant U36A G41C, the self-cleavage is 0.22.
With U36C U38G the figure was 0.244; with U36G A59G, 0.238.
Consider U36G A59C, for which the self-cleavage amounted to 0.182.
As to U36G A59U, the self-cleavage is 0.189.
With G37A A42C the figure was 0.293.
Turning to G37A A42U, the self-cleavage was 0.275.
With G37C A42U the figure was 0.234.
For the variant U36A A60C, the self-cleavage was found to be 0.19.
With U36A A60U the figure was 0.242.
Regarding U36A A60G, the self-cleavage was 0.269.
On to U36G U62C, for which the self-cleavage was determined as 0.21.
On to U36G A52C, for which the self-cleavage was 0.318.
With U36G A52U the figure was 0.271; with U36G A52G, 0.296; with C35U G50A, 0.974.
Regarding C35U G50C, the self-cleavage was found to be 0.979.
Turning to U36C C39G, the self-cleavage amounted to 0.847.
The figure for G37A A52U is 0.273.
Take G37A A52G: the self-cleavage amounted to 0.268.
The figure for G37A U44C is 0.326; for G37A U44G it is 0.223.
The figure for G37C A52C is 0.216; for G37C A52G it is 0.264.
Regarding C35U G47C, the self-cleavage stood at 0.967.
As to C35U G47A, the self-cleavage turned out to be 0.918.
The figure for C35U G47U is 1.01; for U36C G37C it is 0.237; for U36C G37U it is 0.287.
With U36A U44C the figure was 0.295; with U36A U62A, 0.218.
With U36A U62G the figure was 0.249.
In the case of U36G U38C, the self-cleavage was determined as 0.248.
With U36G U38G the figure was 0.2; with G37A U38A, 0.291.
Take G37A U38G: the self-cleavage amounted to 0.251.
The figure for G37A U38C is 0.34; for U36G G56U it is 0.19.
Turning to U36G G56A, the self-cleavage came out at 0.246.
For the variant U36A G50C, the self-cleavage came to 0.249.
As for U36A G50A, the self-cleavage stood at 0.213.
In the case of U36C U43C, the self-cleavage stood at 0.856.
The figure for U36C U43A is 0.787.
The figure for U36A A51C is 0.242; for U36A A51U it is 0.306.
For the variant G37A U69C, the self-cleavage came to 0.498.
With U36A G58U the figure was 0.253; with U36A G58C, 0.226.
Consider G37C C39G, for which the self-cleavage worked out at 0.167.
The figure for G37C C39U is 0.268.
With G37C C39A the figure was 0.215; with C35U U67C, 0.979.
With C35U U67G the figure was 1.03; with U36G C39G, 0.24.
Take U36G C39U: the self-cleavage was found to be 0.218.
With U36G C39A the figure was 0.204.
As to C35U U53A, the self-cleavage was 0.833.
The figure for U36C U69G is 1.02; for U36C U69C it is 1.05; for U36C A59G it is 0.962.
With U36C A59C the figure was 0.42.
Turning to U36C A59U, the self-cleavage was 0.448.
In the case of U36G U61A, the self-cleavage turned out to be 0.341.
Regarding U36A U69A, the self-cleavage came out at 0.377.
Consider U36A U69C, for which the self-cleavage was found to be 0.558.
The figure for U36A C66U is 0.187.
With U36A C66A the figure was 0.294; with C35U U46G, 0.967.
As for C35U U46C, the self-cleavage was 0.976.
The figure for C35U U46A is 0.907.
In the case of G37C G41U, the self-cleavage worked out at 0.201.
Take U36A U67A: the self-cleavage was 0.246.
Turning to U36A U67C, the self-cleavage was 0.215.
The figure for U36A U67G is 0.181; for C35U U69C it is 1.08.
With C35U U69G the figure was 1.01; with U36C G50C, 0.895; with C35U U64A, 0.83.
As to C35U U64C, the self-cleavage was determined as 0.836.
With U36C U49C the figure was 0.863.
The figure for U36C U49A is 0.923.
As to U36C U49G, the self-cleavage amounted to 0.848.
As to G37A U61A, the self-cleavage stood at 0.202.
In the case of G37A G56C, the self-cleavage stood at 0.232.
With C35U G58A the figure was 0.878.
C35U G58C: the self-cleavage amounted to 0.878.
Turning to C35U G58U, the self-cleavage is 0.984.
With U36A A52G, the self-cleavage is 0.178.
The figure for U36A A52U is 0.166.
With U36C G56A the figure was 0.814; with U36C G56C, 0.46; with U36C G56U, 0.696.
The figure for G37A A40C is 0.261; for G37A A40G it is 0.334; for G37A A40U it is 0.244.
U36G G48A: the self-cleavage came to 0.236.
Take U36G G48C: the self-cleavage was 0.266.
For the variant U36G U67A, the self-cleavage amounted to 0.0785.
The figure for U36G U67C is 0.239.
With G37A G48U, the self-cleavage stood at 0.251.
Take U36C U64G: the self-cleavage amounted to 0.762.
Consider U36C U64C, for which the self-cleavage came out at 0.823.
The figure for C35U U44C is 0.919; for C35U U44A it is 0.889; for U36A U46A it is 0.164.
